Biological target: T1, N-terminally Flag-tagged human TLR2 (Homo sapiens, UniProt O60603)
T1 construct: Toll-like receptor 2, human; also called hTLR2; Toll-like receptor 2; source: HEK293, transiently transfected, in lysate; not shown: Flag, N-terminal, kept
Experiment: co-IP; HEK293 cells co-transfected with Flag-tagged human TLR2 and myc-tagged intrabody; lysed after 48 h (0.5% NP40, 150 mM NaCl); IP with myc-specific antibody and protein G beads, 4°C, 16 h, 5 washes; blot with tag-specific antibodies
Details: partners not purified

T1 sequence (O60603 21-784): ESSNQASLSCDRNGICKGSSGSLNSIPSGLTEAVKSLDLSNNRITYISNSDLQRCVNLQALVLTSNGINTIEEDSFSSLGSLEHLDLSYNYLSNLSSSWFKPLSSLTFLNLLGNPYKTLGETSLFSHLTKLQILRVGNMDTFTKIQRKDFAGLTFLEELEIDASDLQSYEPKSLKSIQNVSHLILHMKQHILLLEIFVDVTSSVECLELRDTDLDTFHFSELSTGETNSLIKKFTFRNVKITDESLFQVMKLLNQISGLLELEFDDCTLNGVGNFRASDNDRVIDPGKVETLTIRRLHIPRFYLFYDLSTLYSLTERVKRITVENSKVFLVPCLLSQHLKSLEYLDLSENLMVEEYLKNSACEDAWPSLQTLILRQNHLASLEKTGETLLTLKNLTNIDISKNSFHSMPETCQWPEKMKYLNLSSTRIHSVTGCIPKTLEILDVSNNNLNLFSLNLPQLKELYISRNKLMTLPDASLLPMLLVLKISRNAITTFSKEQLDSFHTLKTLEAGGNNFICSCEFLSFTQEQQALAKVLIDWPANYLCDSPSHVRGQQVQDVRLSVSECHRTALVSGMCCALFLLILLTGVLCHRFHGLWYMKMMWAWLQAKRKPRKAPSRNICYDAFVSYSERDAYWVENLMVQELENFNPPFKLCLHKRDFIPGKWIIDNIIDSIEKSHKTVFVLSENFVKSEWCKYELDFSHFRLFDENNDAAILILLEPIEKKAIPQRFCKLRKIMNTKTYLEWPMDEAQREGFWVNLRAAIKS

B1: anti-TLR2 scFv ER intrabody (αT2ib) (scFv, V domains shown)
VH: QVQLQQSGPELVNPGASVKLSCKASGFTFTTYGINWVKQGPGQGLEWIGWIYPRDGSTNFNENFKDKAALTVDTSSSTAYMELHSLTSEDSAVYFCARLTGGTFLDYWGQGTTVTVSS
VL: DIELTQSPASLAVSLGQRATISCRASESVEYYGTSLMQWYQQKPGQPPKLLIFGASNVESGVPVRFSGSGSGTDFSLNIHPVEEDDIVMYFCQQSRKLPWTFGGGTKLEIK
notes: VH of mouse mAb T2.5 (anti human/murine TLR2), amplified from hybridoma cDNA with consensus primers; synthetic 15 amino acid linker, printed as (Gly4Ser)3, between VH and VL; VL (kappa) of mouse mAb T2.5, amplified from hybridoma cDNA with consensus primers; Apparent size about 30 kDa; also called anti-TLR2 ER intrabody; TLR2 specific intrabody; source: HEK293, transiently transfected …
binding result: binds
